According to article PMC5739758, “Human oncoprotein Musashi-2 N-terminal RNA recognition motif backbone assignment and identification of RNA-binding pocket”:

Tests used:
MSI2-RRM1 [1] = target: T1, MSI2-RRM1 (human, UniProt Q96DH6 21-111); assay: TR-FRET; 2 nM RNA; no detectable binding in nM range; TR-FRET at room temperature (FP per earlier publication; binding buffers not given; protein stored in 50 mM Tris-HCl pH 8.0, 500 mM NaCl); NMR 20 mM MES pH 6.0, 150 mM NaCl, 5% D2O, 298 K; details: protein: recombinant; tags: N-terminal His6 + TEV site (residues -3 to 20); label: 3' biotin
T1 sequence (Q96DH6 21-111): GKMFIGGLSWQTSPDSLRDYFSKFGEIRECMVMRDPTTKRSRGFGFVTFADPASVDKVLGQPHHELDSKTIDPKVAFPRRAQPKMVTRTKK

MSI2-RRM1 [2] = target: T1, MSI2-RRM1; assay: TR-FRET; 2 nM RNA; TR-FRET at room temperature (FP per earlier publication; binding buffers not given; protein stored in 50 mM Tris-HCl pH 8.0, 500 mM NaCl); NMR 20 mM MES pH 6.0, 150 mM NaCl, 5% D2O, 298 K; details: protein: recombinant; tags: N-terminal His6 + TEV site (residues -3 to 20); label: 3' biotin
MSI2-RRM1 [3] = target: T1, MSI2-RRM1; assay: NMR; 1H-15N HSQC titration, 1:1, slow exchange; TR-FRET at room temperature (FP per earlier publication; binding buffers not given; protein stored in 50 mM Tris-HCl pH 8.0, 500 mM NaCl); NMR 20 mM MES pH 6.0, 150 mM NaCl, 5% D2O, 298 K; details: protein: recombinant; tags: N-terminal His6 + TEV site (residues -3 to 20)

UAGCAUCAUCAUUUA (ssRNA) [Numb-mutBiotin]: no binding (MSI2-RRM1 [1]).

UAGGUAGUAGUUUUA (ssRNA) [NumbBiotin] showed a Kd (MSI2-RRM1 [2]) of 2.07 nM.

GUAGU (ssRNA) [Numb5]: binds (MSI2-RRM1 [3]).
